Source: patent US20250034594A1, “RNA-GUIDED GENOME RECOMBINEERING AT KILOBASE SCALE” (THE BOARD OF TRUSTEES OF THE LELAND STANFORD JUNIOR …, priority 2021, published 2025)

Columns and labels:
Assay type in all cases: cell-based
gene editing with Cas9 = experiment: Screen of 322 new SSAP proteins, gene editing activity with Cas9 (Table 5); design: Cas9 with SSAP activity: scale not given here
Outline: (§1)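 Read-out is gene editing activity. Candidates come from sequence data mining, are made synthetically, and are tested alongside either nuclease-active Cas9 or catalytically dead dCas9.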

gene editing with dCas9 = experiment: Screen of 322 new SSAP proteins, gene editing activity with dCas9 (Table 5); design: dCas9 with SSAP activity: scale not given here
Outline: as §1

[1] = system: gene editing with Cas9 and dCas9; experiment: Screen of 322 new SSAP proteins, activity across all experiments (Cas9 and dCas9, Table 5); design: scale not given here
Outline: as §1

Row | Molecule | Cas9 with SSAP activity (gene editing with Cas9) | Cas9 with SSAP activity (normalized) (gene editing with Cas9) | dCas9 with SSAP activity (gene editing with dCas9) | dCas9 with SSAP activity (normalized) (gene editing with dCas9) | Activity across all experiments [1]
1 | SSAP_62: SEQ ID NO: 231 (protein) SEISKAVATQQNPLAVVARYKRELGTVLPTVLRQDPDRWLMAAENAARKNPDIMAVTKADQGASYMRALVECARLGHEPGSKDFHFIKRGNAISGEESYRGIIKRVLNSGFYRSVVARTVFSNDTYSFDPLTDIVPNHVPAQGDRGKPLSAYAFAVHWDGTPSTVAEATPERIATAKAKSFASDKPTSPWQLPTGVMYRKTAIRELEPYVHVAPEPQPRRHLDGTVGGIPATDFDVDDGDVLDITADQLAEAGEIV | −2.135 | −1.289 | −4.940 | −0.604 | −3.538
2 | SSAP_176: SEQ ID NO: 345; Absicoccus porci (protein, listed as Absicoccus porci) TTTNQQGMITKKANNSVAKKTNRTMKDYITMYQGEIAKALPSVMTPERFVRIATTAVTNTPKLASCTPQSFIGALLNAAQLGLEPNTPLGQAYLIPYGNQCQFQIGYLGMVELAQRAGTNVDAHVVYANDEFDYSLGLHPDIKHVPAMKDRGEAIAYYAVWHNGENFGFEVMSREDVEKHMKKYSKTYSNGPWKTEFDEMAKKTVLKRALKYAPKKTDLARAVMQDETIKQFNPKADNDMADAKNDFFDVEYDEVDENTDPVTGEVK | 1.105 | 2.418 | −4.682 | −0.680 | −1.789
3 | SSAP_258: SEQ ID NO: 427; Clostridium thermopalmarium (protein, listed as Clostridium thermopalmarium) ATVNELKNEIATKKETGVGSAGNTIKGLINSPAIKKRFEDVLNKKAPQYMSSIVNLVNGDTNLKKCDQMSVIASCMVAATLDLPIDKNLGYAWIVPYGNRAQFQLGYKGYVQLALRTGQYKAINVIEVHEGELIEWNPLTEELKIDFSQKKSDAIIGYAGYFELLNGFKKSTYWTKEQIIRHKNKFSKSDFGWKKDFDAMAKKTVLRNMLSKWGILSIEMQNAYTADQATIRPEAVETGDIKGNVDYVEADFEENYEGTPFEEVEEGGVNE | −3.280 | −0.553 | −4.748 | −0.956 | −4.014
4 | SSAP_244: SEQ ID NO: 413; Nicoletella semolina (protein, listed as Nicoletella semolina) LKNADPQSVFNAACMAATLNLPIQNGLGFAYIVPYQNKKEKKTEAQFQLGYKGLIQLAQRSGQFKRLVAVPVYEKQLIAEDPINGFEFDWKQKPENGEKPIGYYAYFKLLNDFTAELYMTTHEVDEHAQRYSQTYRTYLDKKSKGQWASSVWADNFEAMALKTVMKLLLSKQAPLSVEMQQAVLADQAVVKNVETNEFSYVDNQIEEAEYTELKVSTDIFEKCKQSILNKETTLQELCDSGYEFSQEQYAELEKLEVE | −8.469 |  | −4.966 | −0.819 | −6.718
5 | SSAP_170: SEQ ID NO: 339; Dorea longicatena (protein, listed as Dorea longicatena) TVGKTDEIKQELARKVENTKAGTKLKKSMSIADMIKVMEPQIKKALPEVITPERFTRMALSALNTTPKLNECTPMSFLAALMNAAQLGLEPNTPLGQAFLIPYNNKGKMECQFQLGYKGLIDLSYRNPNMQIITAHTVYENDEFEYELGLNPCLDHRPTLGERGEIRLFYGLFKLTNGGFGFEVMSKTAMDDFAKEYSKAFDSSFSPWRTNYESMALKTIIKKALKYAPLKSEFRNALSTDETIKNEIGADMSEINSENIFDTVYQEECA | 2.314 | 1.852 | −4.682 | −0.968 | −1.184
6 | SSAP_28: SEQ ID NO: 197 (protein) AITPNPIPAQDGSPIPSPDDIVGELARRKIYAGIPDDDVALALALCQKYGFDPLLKHLVLLATKDRDETTGQGQKHYNAYVTRDGLLHVAHTSGMLDGLETIQGKDDLGEWAEAVVYRKDMSRPFRYRVYLSEYVREAKGVWKTHPQAMLTKTAEVFALRRAFDVALTPFEEMGFDNQNIAGDTGPSPKTGFTEKAGFTGNTDFSAEASLPGKARFSTEAGLTDMTVIPPNRVTGSIPETSRLNTSAGSTGRQRRQLF | 0.503 | 0.506 | −4.957 | −0.886 | −2.227
7 | SSAP_227: SEQ ID NO: 396; Streptococcus parauberis (protein, listed as Streptococcus parauberis) ANQLTVVNTLQSDAVKEKFEAVMGEKANGFVSSVLSVVTNNNILSKADFNSVYTSAMKAAVLDLPVEPSLGMAHIVPYKGKAQFQIGYKGLIQLALRSGQVVGLNAGKVYEGQFKSFNALTEKLDIVDIYNPKKDEPIVGYFAYMKLSNGFEKTTYWTKEQVEEHGKKYSQSYDSKFSPWQTNFDAMARKTVLKSILSTYAPLTIEMQNANDFDNGKNTGIEPLEVKDVTPETDNESLLTDLLEDEPSVNTETGEIIEDTELDLDYGQINAK | −0.330 | −0.310 | −4.819 | −0.774 | −2.575
8 | SSAP_74: SEQ ID NO: 243 (protein) SNPPLAQADLQKTQGTEVKTKTKDQQLIHFINQPSMKAQLAAALPRHMTPDRMIRIVTTEIRKTPALANCDMQSFIGAVVQCSQLGLEPGNALGHAYLLPFGNGKAKSGQSNVQLIIGYRGMIDLARRSNQIISISARTVRQGDSFHFEYGLNENLTHVPGENEDSPITHVYAVARLKDGGVQFEVMTHNQIEKVRASSKAGQNGPWVSHWEEMAKKTVIRRLFKYLPVSIEMQKAVILDEKAEANVDQENASVFEGEFEEVSQSA | 0.893 | 0.751 | 0.668 | 0.984 | 0.781
9 | SSAP_259: SEQ ID NO: 428; Virgibacillus chiguensis (protein, listed as Virgibacillus chiguensis) ATNSSLKNQIANKGNGNQNTPQGYTVKQLMSASSVKNRFEETLGKKAPQFMASVINLVNGDTNLQKCDQMSVVSSAMVAAALDLPIDKNLGYAWVVPYGNKATFQMGYKGYIQLALRTGQYKNINVIEVYEGEVKSFNRLTEEIELEFEGKESDKVIGYVGYFELINGFRKTVYWSKDEIERHKKRFSKTGFAWKDNYDAMAKKTVIRNMLNKWGILSIDMQTAVTTDGNAVTQDFEQEDSGLVIDAEFSEVNEASEGQQEIKFENADA | −2.773 | −0.529 | −4.841 | −1.414 | −3.807
